{
  "source": "paper PMC2747047",
  "test_in_all_cases": "purified protein",
  "key": {"[1]": {"test_system": "CO/N=C(\\C(=O)N[C@@H]1C(=O)N2C(C(=O)O)=C(COC(C)=O)CS[C@H]12)c1csc(N)n1", "settings": "Fe/Zn enzyme; buffer not told in main text"}, "[2]": {"test_system": "C[C@@H](O)[C@H]1C(=O)N2C(C(=O)O)=C(SCCN=CN)C[C@H]12", "settings": "Fe/Zn enzyme; buffer not told in main text"}, "[3]": {"test_system": "O=C(Cc1cccs1)N[C@@H]1C(=O)N2C(C(=O)O)=C(/C=C/c3ccc([N+](=O)[O-])cc3[N+](=O)[O-])CS[C@H]12", "type": "biochemical, Arabidopsis thaliana", "settings": "10 mM MOPS, pH 7.2 (as in Figure 2), Fe/Zn enzyme"}},
  "data": [
    {"substance": "Glx2-1 (Arabidopsis thaliana)", "values": [
      {"measurement": "Km", "setting": "[1]", "result": "25 ± 5", "unit": "µM"},
      {"measurement": "kcat", "setting": "[1]", "result": "0.20 ± 0.01", "unit": "s⁻¹"},
      {"measurement": "Km", "setting": "[2]", "result": "23 ± 3", "unit": "µM"},
      {"measurement": "kcat", "setting": "[2]", "result": "0.20 ± 0.01", "unit": "s⁻¹"},
      {"measurement": "Km", "setting": "[3]", "result": "9.9 ± 1.6", "unit": "µM"},
      {"measurement": "kcat", "setting": "[3]", "result": "1.20 ± 0.04", "unit": "s⁻¹"}
    ]}
  ]
}
